Experiments:
[1] = molecular target: human polyclonal IgG (Gammanorm) (human); assay: SPR; ratio to reference Zvar1 after 0.5M NaOH cycles
[2] = molecular target: human polyclonal IgG (Gammanorm) (human); assay: SPR, ligand on chip; IgG signal left after 0.5M NaOH cycles
[3] = molecular target: human polyclonal IgG (Gammanorm) (human); assay: SPR; ratio to reference Zvar4 after 0.5M NaOH cycles
[4] = molecular target: human polyclonal IgG (Gammanorm) (human); assay: SPR; ratio to reference Zvar4 after 1M NaOH cycles
[5] = molecular target: human polyclonal IgG (Gammanorm) (human); assay: SPR, ligand on chip; IgG signal left after 1M NaOH cycles
[6] = molecular target: IgG1 monoclonal antibody (probe molecule of Example 1); assay: Biacore SPR, ligand on CM5 chip, IgG1 mAb as probe
[7] = molecular target: human polyclonal IgG (Gammanorm) (human); assay: SPR; ratio to reference Zvar6 after 0.5M NaOH cycles

Row | Capacity relative to reference [1] | Capacity after 96-100 cycles [2] [%] | Capacity relative to ref. 100 cycles [3] | Remaining capacity 100 cycles (%) [2] [%] | further results | Substance
1 | 1.04 | 53 |  |  |  | Zvar(N11E, Q32E, K50R)1 (designed binder)
2 | 1.31 | 59 |  |  |  | Zvar(N11K, H18K, D37E, A42R, N43A, L44I)1 (designed binder)
3 | 1.46 | 67 |  |  |  | Zvar(N11K, H18K, S33K, D37E, A42R, N43A, L44I, K50R, L51Y)1 (designed binder)
4 |  |  | 1.13 | 81 |  | Zvar(Q9A, N11E, D37E, Q40V, A42K, N43A, L44I)4 (designed binder)
5 |  |  | 1.17 | 84 |  | Zvar(Q9A, N11E, D37E, Q40V, A42R, N43A, L44I)4 (designed binder)
6 |  |  | 1.19 | 80 | Capacity relative to ref. 100 cycles [4]: 2.04; Remaining capacity 100 cycles (%) [5]: 55%; Capacity relative to ref. 200 cycles [3]: 1.72; Capacity relative to ref. 300 cycles [3]: 2.62; Remaining capacity 200 cycles (%) [2]: 62%; Remaining capacity 300 cycles (%) [2]: 42% | Zvar(Q9A, N11E, N28A, N43A)4 (designed binder)
7 | 1.35 | 65 |  |  |  | Zvar(Q9A, N11E, N28A, Q40V, A42K, N43A, L44I)1 (designed binder)
8 |  |  | 1.24 | 84 |  | Zvar(Q9A, N11E, N28A, Q40V, A42K, N43A, L44I)4 (designed binder)
9 |  |  | 1.21 | 81 | Capacity relative to ref. 200 cycles [3]: 1.72; Capacity relative to ref. 300 cycles [3]: 2.56; Remaining capacity 200 cycles (%) [2]: 62%; Remaining capacity 300 cycles (%) [2]: 41% | Zvar(Q9A, N11E, N43A)4 (designed binder)
10 | 1.4 | 66 |  |  | Kd [6]: 1.07 nM; koff [6]: 0.000437 s⁻¹; kon [6]: 410000 M⁻¹ s⁻¹ | Zvar(Q9A, N11E, Q40V, A42K, N43A, L44I)1 (designed binder)
11 |  |  | 1.34 | 90 | Capacity relative to ref. 100 cycles [4]: 2.07; Remaining capacity 100 cycles (%) [5]: 56%; Capacity relative to ref. 200 cycles [3]: 2.06; Capacity relative to ref. 300 cycles [3]: 3.56; Remaining capacity 200 cycles (%) [2]: 74%; Remaining capacity 300 cycles (%) [2]: 57% | Zvar(Q9A, N11E, Q40V, A42K, N43A, L44I)4 (designed binder)
12 |  |  |  | 87 | Capacity relative to ref. 100 cycles [7]: 1.3 | Zvar(Q9A, N11E, Q40V, A42K, N43A, L44I)6 (designed binder)
13 |  |  | 1.25 | 84 | Capacity relative to ref. 100 cycles [4]: 2; Remaining capacity 100 cycles (%) [5]: 54%; Capacity relative to ref. 200 cycles [3]: 1.81; Capacity relative to ref. 300 cycles [3]: 3; Remaining capacity 200 cycles (%) [2]: 65%; Remaining capacity 300 cycles (%) [2]: 48% | Zvar(Q9A, N11E, Q40V, A42K, N43E, L44I)4 (designed binder)
14 | 1.4 | 63 |  |  |  | Zvar(Q9A, N11K, H18K, D37E, A42R, N43A, L44I)1 (designed binder)
15 | 1.49 | 67 |  |  |  | Zvar(Q9A, N11K, H18K, D37E, A42R, N43A, L44I, K50R)1 (designed binder)
16 | 1.28 | 59 |  |  |  | Zvar(Q9A, N11K, H18K, S33K, D37E, A42R, N43A, L44I, K50R, L51Y)1 (designed binder)
17 |  |  |  |  | Reference capacity after 96-100 cycles [2]: 35% | parental B domain of Protein A (from UniProt A0A0H3K686 212-269)
18 |  |  |  |  | Reference capacity after 96-100 cycles [2]: 49% | parental C domain of Protein A (from UniProt A0A0H3K686 270-327)

From patent US20200239517A1
